This note sets out measurements from patent US9173923B2, “Modulating innate immune cell activity by lunasin and selected cytokines” (Indiana University Research & Technology Corporation, priority 2011, dated 2015).

The subject of one experiment is human primary NK cells. Description: Gene expression by primary NK cells (real time qPCR, Taqman Assay). It is filed as cell-based. The conditions noted are these: 1 day; lunasin 20 μM; compared to cytokine alone. From the text:
FIG. 3 Synergistic effects of lunasin and cytokines on gene expression by human primary NK cells. […] One day following the stimulation, the cell pellets were resuspended in Trizol Reagents for total RNA extraction. The first-strand cDNA was synthesized followed by real time qPCR using Taqman Assay with primers for IFNγ(IFNG), granzyme B (GZMB), granulysin (GNLY), chemokine (C-C motif) ligand 3 or CCL3 (CCL3), CCL4 (CCL4). Granulocyte-macrophage colony-stimulating factor or GM-CSF (CSF2) TGFβ (TGFB) and TGFβ receptor (TGFBR2) in ABI 7300 (Applied Biosystems by Life Technologies, Carlsbad CA) Data are presented as mean±SD from 2 duplicates. Results shown are representative over 5 different normal controls. […]
One day following the stimulation, the cell pellets were resuspended in Trizol Reagents for total RNA extraction. The first-strand cDNA was synthesized followed by real time qPCR using Taqman Assay with primers for IFNγ (IFNG), granzyme B (GZMB), granulysin (GNLY), chemokine (C-C motif) ligand 3 or CCL3 (CCL3), CCL4 (CCL4), Granulocyte-macrophage colony-stimulating factor or GM-CSF (CSF2), TGFβ (TGFB) and TGFβ receptor (TGFBR2) in ABI 7300 (Applied Biosystems by Life Technologies, Carlsbad, Calif.). Data are presented as mean±SD from duplicates. Results shown are representative over 5 different normal controls.
Following 1, 2, and 3 days of stimulation, the cell pellets were lysed in Trizol Reagents for total RNA extraction. The first-strand cDNA was synthesized followed by real time qPCR using Taqman Assay with primer for TGFB1 and TGFBR2 in ABI 7300. Results are presented as mean±SD from duplicates. […]
Freshly isolated human NK cells from peripheral blood mononuclear cells (PBMCs) of normal control using positive selection with CD56 magnetic beads (Miltenyi Biotec, Auburn, Calif.) were stimulated with medium only (−), IL-12 (10 ng/ml) or IL-12 (10 ng/ml)+lunasin (5 μM) for 1 day. The cell pellets were lysed in Trizol Reagents for total RNA extraction. The first-strand cDNA was synthesized followed by real time qPCR using Taqman Assay with primer for inhibitory receptors KIR3DL1 (upper panel) and KIR3DL2 (lower panel) in ABI 7300.

The test system of another experiment is mouse NK cells. Description: IFNγ produced by NK cells from tumor-bearing mice with or without etoposide chemotherapy (ELISA). The conditions noted are these: reduced Stat4; mouse IL-12 2 ng/ml or human IL-2 50 units/ml, lunasin 20 μM; 1 day. It is filed as cell-based. (In general: In an ELISA, binding on a coated surface is turned into a signal by an enzyme label.)

Protocol for mouse NK cells: Mouse NK cells were positively selected from spleens of tumor-bearing mice with (+Eto) or without (−Eto) chemotherapeutic drug etoposide. Isolated NK cells were stimulated with mouse IL-12 at 2 ng/ml with (+) or without (−) lunasin peptide (A) or human IL-2 at 50 units/ml with (+) or without (−) lunasin at 20 μM (B). The production of IFNγ in the supernatant after 1 day of stimulation was determined using ELISA. Results are presented as mean±SD from 3 mice. ND is not detectable.

B1: IL-12 (protein, UniProt P43431 23-215; P43432 23-335, looked up)
Interleukin-12 subunit alpha: RVIPVSGPARCLSQSRNLLKTTDDMVKTAREKLKHYSCTAEDIDHEDITRDQTSTLKTCLPLELHKNESCLATRETSSTTRGSCLPPQKTSLMMTLCLGSIYEDLKMYQTEFQAINAALQNHNHQQIILDKGMLVAIDELMQSLNHNGETLRQKPPVGEADPYRVKMKLCILLHAFSTRVVTINRVMGYLSSA
Interleukin-12 subunit beta: MWELEKDVYVVEVDWTPDAPGETVNLTCDTPEEDDITWTSDQRHGVIGSGKTLTITVKEFLDAGQYTCHKGGETLSHSHLLLHKKENGIWSTEILKNFKNKTFLKCEAPNYSGRFTCSWLVQRNMDLKFNIKSSSSSPDSRAVTCGMASLSAEKVTLDQRDYEKYSVSCQEDVTCPTAEETLPIELALEARQQNKYENYSTSFFIRDIIKPDPPKNLQMKPLKNSQVEVSWEYPDSWSTPHSYFSLKFFVRIQRKKEKMKETEEGCNQKGAFLVEKTSTEVQCKGGNVCVQAQDRYYNSSCSKWACVPCRVRS
Regarding B1, the “GZMB (granzyme B) gene expression” value in the experiment on human primary NK cells is on record as “no further induction of GZMB”. Further, the “IFNγ production by NK cells from tumor-bearing mice following chemotherapy (+etoposide)” value in the experiment with mouse NK cells is “secreted less IFNγ”.
